From EP4663654A1 (Hangzhou Sciwind Biosciences Co., Ltd., dated 2025)
Starred links: 1 amine or outer side, 2 acyl side, 3 side chain; linkers in the order of their positions; H or OH if unused. Non-standard residues stand in square brackets, D forms with d. *: point of attachment. C20 diacid = O=C(O)CCCCCCCCCCCCCCCCCCC(=O)*; γGlu = O=C(O)[C@H](CCC(=O)[*:2])N[*:1]; Hyp = O=C(O)[C@@H]1C[C@@H](O)CN1; αMeN = C[C@](N)(CC(N)=O)C(=O)O

T1: human amylin receptor (AMY3) on CHO-K1/Ga15/AMY3 amylin receptor/CRE-luc cells (human, UniProt P30988 25-474; O60896 24-148)
T1 sequence (looked up) 1: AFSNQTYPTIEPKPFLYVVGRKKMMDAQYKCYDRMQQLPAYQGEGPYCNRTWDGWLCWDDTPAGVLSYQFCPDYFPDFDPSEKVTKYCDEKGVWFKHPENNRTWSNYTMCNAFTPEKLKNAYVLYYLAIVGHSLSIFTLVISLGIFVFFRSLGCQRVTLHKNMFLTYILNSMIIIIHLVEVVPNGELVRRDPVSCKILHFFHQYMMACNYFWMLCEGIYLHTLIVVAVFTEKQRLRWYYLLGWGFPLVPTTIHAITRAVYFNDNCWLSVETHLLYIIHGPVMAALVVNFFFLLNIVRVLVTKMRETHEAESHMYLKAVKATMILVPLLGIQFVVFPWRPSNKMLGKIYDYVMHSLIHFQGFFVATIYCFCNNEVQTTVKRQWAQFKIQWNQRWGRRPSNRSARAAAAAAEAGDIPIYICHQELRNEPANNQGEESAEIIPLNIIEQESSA
T1 sequence (looked up) 2: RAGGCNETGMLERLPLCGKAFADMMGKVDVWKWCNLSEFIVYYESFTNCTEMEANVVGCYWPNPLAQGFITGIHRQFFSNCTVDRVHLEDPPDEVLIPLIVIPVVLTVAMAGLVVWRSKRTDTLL


Molecular target: T1, human amylin receptor (AMY3) on …
Experiment: cell-based or functional assay

Binder	EC50/nM, CRE-luciferase reporter in amylin receptor/CRE-luc CHO cells [nM]	Relative activity (the EC50 ratio of Cagrilintide to the compound) [%]
{C20 diacid-γGlu}-ASQLSTAATQRLADFLRHFTDRDRDILPPTNVGSNTP-NH2 (SMILES CC[C@H](C)[C@H](NC(=O)[C@H](CC(=O)O)NC(=O)[C@H](CCCNC(=N)N)NC(=O)[C@H](CC(=O)O)NC(=O)[C@H](CCCNC(=N)N)NC(=O)[C@H](CC(=O)O)NC(=O)[C@@H](NC(=O)[C@H](Cc1ccccc1)NC(=O)[C@H](Cc1c[nH]cn1)NC(=O)[C@H](CCCNC(=N)N)NC(=O)[C@H](CC(C)C)NC(=O)[C@H](Cc1ccccc1)NC(=O)[C@H](CC(=O)O)NC(=O)[C@H](C)NC(=O)[C@H](CC(C)C)NC(=O)[C@H](CCCNC(=N)N)NC(=O)[C@H](CCC(N)=O)NC(=O)[C@@H](NC(=O)[C@H](C)NC(=O)[C@H](C)NC(=O)[C@@H](NC(=O)[C@H](CO)NC(=O)[C@H](CC(C)C)NC(=O)[C@H](CCC(N)=O)NC(=O)[C@H](CO)NC(=O)[C@H](C)NC(=O)CC[C@H](NC(=O)CCCCCCCCCCCCCCCCCCC(=O)O)C(=O)O)[C@@H](C)O)[C@@H](C)O)[C@@H](C)O)C(=O)N[C@@H](CC(C)C)C(=O)N1CCC[C@H]1C(=O)N1CCC[C@H]1C(=O)N[C@H](C(=O)N[C@@H](CC(N)=O)C(=O)N[C@H](C(=O)NCC(=O)N[C@@H](CO)C(=O)N[C@@H](CC(N)=O)C(=O)N[C@H](C(=O)N1CCC[C@H]1C(N)=O)[C@@H](C)O)C(C)C)[C@@H](C)O) [polypeptide derivative M6]	0.042	62
{C20 diacid-γGlu}-ASQLSTAVTQRLADFLRHSSNNLKPILPPTNVGSNT[Hyp]-NH2 (SMILES CC[C@H](C)[C@H](NC(=O)[C@@H]1CCCN1C(=O)[C@H](CCCCN)NC(=O)[C@H](CC(C)C)NC(=O)[C@H](CC(N)=O)NC(=O)[C@H](CC(N)=O)NC(=O)[C@H](CO)NC(=O)[C@H](CO)NC(=O)[C@H](Cc1c[nH]cn1)NC(=O)[C@H](CCCNC(=N)N)NC(=O)[C@H](CC(C)C)NC(=O)[C@H](Cc1ccccc1)NC(=O)[C@H](CC(=O)O)NC(=O)[C@H](C)NC(=O)[C@H](CC(C)C)NC(=O)[C@H](CCCNC(=N)N)NC(=O)[C@H](CCC(N)=O)NC(=O)[C@@H](NC(=O)[C@@H](NC(=O)[C@H](C)NC(=O)[C@@H](NC(=O)[C@H](CO)NC(=O)[C@H](CC(C)C)NC(=O)[C@H](CCC(N)=O)NC(=O)[C@H](CO)NC(=O)[C@H](C)NC(=O)CC[C@H](NC(=O)CCCCCCCCCCCCCCCCCCC(=O)O)C(=O)O)[C@@H](C)O)C(C)C)[C@@H](C)O)C(=O)N[C@@H](CC(C)C)C(=O)N1CCC[C@H]1C(=O)N1CCC[C@H]1C(=O)N[C@H](C(=O)N[C@@H](CC(N)=O)C(=O)N[C@H](C(=O)NCC(=O)N[C@@H](CO)C(=O)N[C@@H](CC(N)=O)C(=O)N[C@H](C(=O)N1C[C@H](O)C[C@H]1C(N)=O)[C@@H](C)O)C(C)C)[C@@H](C)O) [polypeptide derivative M7]	0.066	39
{C20 diacid-γGlu}-ASELSTAALGRLADFLRHSSNNLKPILPPTNVGSNT[Hyp]-NH2 (SMILES CC[C@H](C)[C@H](NC(=O)[C@@H]1CCCN1C(=O)[C@H](CCCCN)NC(=O)[C@H](CC(C)C)NC(=O)[C@H](CC(N)=O)NC(=O)[C@H](CC(N)=O)NC(=O)[C@H](CO)NC(=O)[C@H](CO)NC(=O)[C@H](Cc1c[nH]cn1)NC(=O)[C@H](CCCNC(=N)N)NC(=O)[C@H](CC(C)C)NC(=O)[C@H](Cc1ccccc1)NC(=O)[C@H](CC(=O)O)NC(=O)[C@H](C)NC(=O)[C@H](CC(C)C)NC(=O)[C@H](CCCNC(=N)N)NC(=O)CNC(=O)[C@H](CC(C)C)NC(=O)[C@H](C)NC(=O)[C@H](C)NC(=O)[C@@H](NC(=O)[C@H](CO)NC(=O)[C@H](CC(C)C)NC(=O)[C@H](CCC(=O)O)NC(=O)[C@H](CO)NC(=O)[C@H](C)NC(=O)CC[C@H](NC(=O)CCCCCCCCCCCCCCCCCCC(=O)O)C(=O)O)[C@@H](C)O)C(=O)N[C@@H](CC(C)C)C(=O)N1CCC[C@H]1C(=O)N1CCC[C@H]1C(=O)N[C@H](C(=O)N[C@@H](CC(N)=O)C(=O)N[C@H](C(=O)NCC(=O)N[C@@H](CO)C(=O)N[C@@H](CC(N)=O)C(=O)N[C@H](C(=O)N1C[C@H](O)C[C@H]1C(N)=O)[C@@H](C)O)C(C)C)[C@@H](C)O) [polypeptide derivative M1]	0.053	49
{C20 diacid-γGlu}-ASQLSTAATQRLADFLRHSSN[αMeN]LKPILPPTNVGSNT[Hyp]-NH2 [polypeptide derivative M55]	0.03	233

More lines, now with the values ahead:

EC50/nM, CRE-luciferase reporter in amylin receptor/CRE-luc CHO cells [nM]	Relative activity (the EC50 ratio of Cagrilintide to the compound) [%]	Binder
0.031	84	{C20 diacid-γGlu}-ASQLSTAATQRLADFLRHSSNNLKPILPPTNVGSNT[Hyp]-NH2 (SMILES CC[C@H](C)[C@H](NC(=O)[C@@H]1CCCN1C(=O)[C@H](CCCCN)NC(=O)[C@H](CC(C)C)NC(=O)[C@H](CC(N)=O)NC(=O)[C@H](CC(N)=O)NC(=O)[C@H](CO)NC(=O)[C@H](CO)NC(=O)[C@H](Cc1c[nH]cn1)NC(=O)[C@H](CCCNC(=N)N)NC(=O)[C@H](CC(C)C)NC(=O)[C@H](Cc1ccccc1)NC(=O)[C@H](CC(=O)O)NC(=O)[C@H](C)NC(=O)[C@H](CC(C)C)NC(=O)[C@H](CCCNC(=N)N)NC(=O)[C@H](CCC(N)=O)NC(=O)[C@@H](NC(=O)[C@H](C)NC(=O)[C@H](C)NC(=O)[C@@H](NC(=O)[C@H](CO)NC(=O)[C@H](CC(C)C)NC(=O)[C@H](CCC(N)=O)NC(=O)[C@H](CO)NC(=O)[C@H](C)NC(=O)CC[C@H](NC(=O)CCCCCCCCCCCCCCCCCCC(=O)O)C(=O)O)[C@@H](C)O)[C@@H](C)O)C(=O)N[C@@H](CC(C)C)C(=O)N1CCC[C@H]1C(=O)N1CCC[C@H]1C(=O)N[C@H](C(=O)N[C@@H](CC(N)=O)C(=O)N[C@H](C(=O)NCC(=O)N[C@@H](CO)C(=O)N[C@@H](CC(N)=O)C(=O)N[C@H](C(=O)N1C[C@H](O)C[C@H]1C(N)=O)[C@@H](C)O)C(C)C)[C@@H](C)O) [polypeptide derivative M5]
0.08	200	{C20 diacid-γGlu}-ASQLSTAATQRLADFLRHSSKNLKPILPPTNVGSNT[Hyp]-NH2 (SMILES CC[C@H](C)[C@H](NC(=O)[C@@H]1CCCN1C(=O)[C@H](CCCCN)NC(=O)[C@H](CC(C)C)NC(=O)[C@H](CC(N)=O)NC(=O)[C@H](CCCCN)NC(=O)[C@H](CO)NC(=O)[C@H](CO)NC(=O)[C@H](Cc1c[nH]cn1)NC(=O)[C@H](CCCNC(=N)N)NC(=O)[C@H](CC(C)C)NC(=O)[C@H](Cc1ccccc1)NC(=O)[C@H](CC(=O)O)NC(=O)[C@H](C)NC(=O)[C@H](CC(C)C)NC(=O)[C@H](CCCNC(=N)N)NC(=O)[C@H](CCC(N)=O)NC(=O)[C@@H](NC(=O)[C@H](C)NC(=O)[C@H](C)NC(=O)[C@@H](NC(=O)[C@H](CO)NC(=O)[C@H](CC(C)C)NC(=O)[C@H](CCC(N)=O)NC(=O)[C@H](CO)NC(=O)[C@H](C)NC(=O)CC[C@H](NC(=O)CCCCCCCCCCCCCCCCCCC(=O)O)C(=O)O)[C@@H](C)O)[C@@H](C)O)C(=O)N[C@@H](CC(C)C)C(=O)N1CCC[C@H]1C(=O)N1CCC[C@H]1C(=O)N[C@H](C(=O)N[C@@H](CC(N)=O)C(=O)N[C@H](C(=O)NCC(=O)N[C@@H](CO)C(=O)N[C@@H](CC(N)=O)C(=O)N[C@H](C(=O)N1C[C@H](O)C[C@H]1C(N)=O)[C@@H](C)O)C(C)C)[C@@H](C)O) [polypeptide derivative M53]
0.06	267	{C20 diacid-γGlu}-ASQLSTAATQRLADFLRHSSRNLKPILPPTNVGSNT[Hyp]-NH2 (SMILES CC[C@H](C)[C@H](NC(=O)[C@@H]1CCCN1C(=O)[C@H](CCCCN)NC(=O)[C@H](CC(C)C)NC(=O)[C@H](CC(N)=O)NC(=O)[C@H](CCCNC(=N)N)NC(=O)[C@H](CO)NC(=O)[C@H](CO)NC(=O)[C@H](Cc1c[nH]cn1)NC(=O)[C@H](CCCNC(=N)N)NC(=O)[C@H](CC(C)C)NC(=O)[C@H](Cc1ccccc1)NC(=O)[C@H](CC(=O)O)NC(=O)[C@H](C)NC(=O)[C@H](CC(C)C)NC(=O)[C@H](CCCNC(=N)N)NC(=O)[C@H](CCC(N)=O)NC(=O)[C@@H](NC(=O)[C@H](C)NC(=O)[C@H](C)NC(=O)[C@@H](NC(=O)[C@H](CO)NC(=O)[C@H](CC(C)C)NC(=O)[C@H](CCC(N)=O)NC(=O)[C@H](CO)NC(=O)[C@H](C)NC(=O)CC[C@H](NC(=O)CCCCCCCCCCCCCCCCCCC(=O)O)C(=O)O)[C@@H](C)O)[C@@H](C)O)C(=O)N[C@@H](CC(C)C)C(=O)N1CCC[C@H]1C(=O)N1CCC[C@H]1C(=O)N[C@H](C(=O)N[C@@H](CC(N)=O)C(=O)N[C@H](C(=O)NCC(=O)N[C@@H](CO)C(=O)N[C@@H](CC(N)=O)C(=O)N[C@H](C(=O)N1C[C@H](O)C[C@H]1C(N)=O)[C@@H](C)O)C(C)C)[C@@H](C)O) [polypeptide derivative M54]
